First the molecules themselves.
B1: NF2 (merlin) isoform 7, human, full length (507 aa, lacks exons 2-3 = isoform-1 residues 39-121; exon-16 C-terminus), P35240-4 (parent)
chain: MAGAIASRMSFSSLKRKQPKTFTVRIVTMDAEMEFNCEVKKQILDEKIYCPPEASVLLASYAVQAKYGDYDPSVHKRGFLAQEELLPKRVINLYQMTPEMWEERITAWYAEHRGRARDEAEMEYLKIAQDLEMYGVNYFAIRNKKGTELLLGVDALGLHIYDPENRLTPKISFPWNEIRNISYSDKEFTIKPLDKKIDVFKFNSSKLRVNKLILQLCIGNHDLFMRRRKADSLEVQQMKAQAREEKARKQMERQRLAREKQMREEAERTRDELERRLLQMKEEATMANEALMRSEETADLLAEKAQITEEEAKLLAQKAAEAEQEMQRIKATAIRTEEEKRLMEQKVLEAEVLALKMAEESERRAKEADQLKQDLQEAREAERRAKQKLLEIATKPTYPPMNPIPAPLPPDIPSFNLIGDSLSFDFKDTDMKRLSMEIEKEKVEYMEKSKHLQEQLNELKTEIEALKLKERETALDILHNENSDRGGSSKHNTIKKPQAQGRRPICI

This experiment covers variants of B1. Briefly: reverse yeast two-hybrid deep mutational scan (rY2H-seq): NF2 isoform 7 mutant library as bait mated with wild-type prey strains; selection on medium lacking adenine for non-interacting pairs; NextSeq paired-end sequencing; enrichment vs …. As to conditions: yeast diploids after mating (RBait_S3 x RPrey_S3), 30 °C, selection for reporter genes on NB agar, HIGHER = WEAKER BINDING (the opposite of display enrichments): higher = stronger loss of interaction: reverse Y2H selects yeast in which bait and prey do NOT interact (growth without adenine), so a …, hits-only table, scale: rY2H score, numbering: uniprot, sequence starts at 1. For orientation: In a reporter assay the amount or activity of a reporter protein is the signal.

Where [1] appears, read: with EMILIN1 (elastin microfibril interfacer 1), Q9Y6C2, human ABL2 co-expressed as the kinase-dead K35M mutant ….
Setting [2] is: with EMILIN1 (elastin microfibril interfacer 1), Q9Y6C2, human tyrosine kinase ABL2 co-expressed as the active kinase ….
[3] abbreviates: with KDM1A (lysine-specific histone demethylase 1A; the table's label AOF2 is a gene synonym of KDM1A), O60341, human ABL2 co-expressed as the kinase-dead K35M mutant ….
Where [4] appears, read: with KDM1A (lysine-specific histone demethylase 1A; the table's label AOF2 is a gene synonym of KDM1A), O60341, human tyrosine kinase ABL2 co-expressed as the active kinase ….
[5] abbreviates: with NF2 C-terminal domain (wild type; homomeric NF2-NF2 interaction), P35240, human ABL2 co-expressed as the kinase-dead K35M mutant …, partner unresolved.
[6] abbreviates: with PIK3R3 (phosphatidylinositol 3-kinase regulatory subunit gamma), Q92569, human tyrosine kinase ABL2 co-expressed as the active kinase ….

Several values for one entry are separate records, joined by “and”; a condition that tells them apart may be missing. Equal values may be shown once.

Turning to K340E, the enrichment by setting is: under setting [1], 2.44 and 2.85; under setting [2], 4.17 and 3.5; under setting [3], 1.93 and 2.13; under setting [4], 1.71 and 2.96; under setting [5], 2.5 and 3.18; under setting [6], 5.
As to K340A, the enrichment under setting [1] was 2.47; the enrichment under setting [2] came to 2.67; the enrichment under setting [3] is 3.4 and 3.43; the enrichment under setting [4] is 3.04 and 2.28; the enrichment under setting [6] was found to be 1.46.
As to M401W, the enrichment was 2.39 under setting [1]; 2.1 and 5.12 under setting [2].
As for M401A, the enrichment is, setting by setting: under setting [1], 2.05; under setting [3], 3.12; under setting [4], 3.23 and 2.41; under setting [6], 1.56.
For the variant L348S, the enrichment runs as follows: under setting [1], 3.01; under setting [2], 3.29; under setting [3], 4.93.
For L348E, the enrichment by setting is: under setting [1], 2.15; under setting [2], 2.19; under setting [5], 1.71.
Consider L417K, for which the enrichment under setting [1] came to 1.65, the enrichment under setting [4] was 2.29 and the enrichment under setting [6] was 1.72.
Regarding Q373A, the enrichment under setting [1] was 2.83 and 2.82; the enrichment under setting [3] is 7.31 and 3.66; the enrichment under setting [6] amounted to 4.51.
In the case of Q373Y, the enrichment reads like this: under setting [1], 2.52; under setting [2], 3.17.
As for Q373E, the enrichment is, setting by setting: under setting [1], 3.3; under setting [3], 2.85; under setting [5], 1.81.
For the variant E311A, the enrichment under setting [1] worked out at 1.44.
For D420A, the enrichment runs as follows: under setting [1], 2.04; under setting [5], 2.35.
Consider E349T, for which the enrichment is, setting by setting: under setting [1], 2.72 and 2.96; under setting [2], 3.96 and 3.74; under setting [3], 3.54 and 3.02; under setting [4], 2.75.
For D69K, the enrichment under setting [2] came to 1.87 and the enrichment under setting [4] is 6.13.
On to N482K, for which the enrichment under setting [1] was found to be 2.14.
Take P410L: the enrichment reads like this: under setting [1], 3.26 and 3.02; under setting [2], 5.11 and 2.8; under setting [3], 5.35 and 7.09; under setting [4], 6.37 and 2.41; under setting [5], 2.14 and 2.85; under setting [6], 2.56.
In the case of R270L, the enrichment under setting [1] is 1.78, the enrichment under setting [2] is 6.66 and the enrichment under setting [5] came out at 2.39.
For the variant D425A, the enrichment under setting [1] stood at 2.63.
The same measure, in the same setting: as for N457L, the figure is 3.83.
Take L422K: the enrichment was determined as 3.21 under setting [1] and 1.93 under setting [3].
As for L353T, the enrichment under setting [1] is 8.41.
With L353W, the enrichment is, setting by setting: under setting [1], 1.51; under setting [3], 1.6.
As for D411K, under setting [1], the enrichment was found to be 2.21.
Still for that read-out and setting: under M280E stands 2.68.
With I418L, the enrichment came to 6.81 under setting [1] and 6.54 under setting [3].
For I418K, the enrichment under setting [1] amounted to 1.67 and the enrichment under setting [3] was found to be 1.67.
Turning to I418W, the enrichment amounted to 16.4 under setting [1] and 19.8 under setting [3].
As to R379A, the enrichment runs as follows: under setting [1], 2.05; under setting [2], 2.9; under setting [3], 2.
R379L: under setting [1], the enrichment is 2.11.
I334K: the enrichment by setting is: under setting [1], 1.69; under setting [3], 2.46; under setting [4], 3.87; under setting [6], 2.88.
Regarding I334T, the enrichment runs as follows: under setting [1], 1.75; under setting [2], 1.68 and 2.52; under setting [3], 2.69 and 1.45.
Consider I334L, for which the enrichment was 1.59 and 1.85 under setting [1]; 3.11 under setting [4]; 1.39 under setting [6].
As for I334E, the enrichment runs as follows: under setting [1], 2.52; under setting [3], 4.73 and 1.72; under setting [6], 2.25.
For the variant I463A, the enrichment under setting [1] came out at 5.41.
For E339L, the enrichment runs as follows: under setting [1], 1.74; under setting [5], 1.65.
As for E339T, the enrichment under setting [1] was 3.93, the enrichment under setting [2] was 5.99, the enrichment under setting [3] turned out to be 2.02 and the enrichment under setting [5] amounted to 2.08.
E339A: the enrichment runs as follows: under setting [1], 2.51; under setting [2], 1.94.
E339K: the enrichment runs as follows: under setting [1], 4.07 and 1.56; under setting [2], 3.86; under setting [3], 2.92; under setting [4], 2.13; under setting [5], 1.45; under setting [6], 1.62.
Take S55L: the enrichment under setting [2] stood at 2.05.
In the case of L301E, the enrichment under setting [1] turned out to be 7.29, the enrichment under setting [2] was determined as 1.77, the enrichment under setting [3] was determined as 4.8 and the enrichment under setting [5] stood at 3.42.
As for L301K, the enrichment under setting [1] worked out at 4.43.
With P403R, the enrichment came to 5.14 under setting [1], 3.53 under setting [2] and 3.96 under setting [6].
With P497L, the enrichment amounted to 2.21 under setting [1], 2.34 under setting [2], 5.64 under setting [4] and 2.98 under setting [5].
As to E265K, under setting [1], the enrichment turned out to be 4.95.
In the case of E265L, the enrichment is, setting by setting: under setting [1], 3.19; under setting [2], 3.78; under setting [3], 7.66; under setting [4], 4.47.
As to L371K, the enrichment was 2.05 under setting [1] and 2.49 under setting [2].
For P405E, the enrichment runs as follows: under setting [1], 1.6; under setting [3], 2.38; under setting [5], 1.76; under setting [6], 1.85 and 3.91.
Turning to P405Q, the enrichment is, setting by setting: under setting [1], 3.57 and 2.37; under setting [6], 4.58.

The record behind these values is publication PMC10244618.
